Results from patent publication US7820142B2, “Immunogenic glycopeptides, screening, preparation and uses” (priority 2004, dated 2010).
Entries after “also recorded” stand apart in the source; their conditions may differ. Where two headings read alike, the source gives them in different places. No end group written: not given here.

Columns and labels:
CD4+ T lymphocytes = type: cell-based, human; conditions: for difference of response between tuberculosis patients and vaccinated controls (in words): 18 patients versus 12 BCG-vaccinated controls
T lymphocytes = assay: in vitro lymphocyte proliferation assay; type: cell-based
Text: The conditions of the assay are those described in Horn et al., mentioned above.

[1] = system: guinea pigs immunized with heat-inactivated BCG; type: in vivo, guinea pig
[2] = system: guinea pigs immunized with live BCG; type: in vivo, guinea pig; conditions: for loss of antigenic activity during digestion with α-mannosidase: 0.2 μg intradermal
[3] = system: guinea pigs immunized with the plasmids pAG831 or pAG832; assay: delayed-type hypersensitivity assay, guinea pigs immunized with naked DNA encoding Apa; conditions: guinea pig, in vivo
[4] = system: CD4+ T lymphocytes originating from animals infected with M. tuberculosis or immunized with BCG; conditions: cited from earlier work
[5] = system: guinea pigs immunized with the Apa fusion peptide; assay: delayed hypersensitivity reactions, guinea pigs immunized with the Apa fusion peptide; type: in vivo, guinea pig
[6] = guinea pigs immunized with live BCG

## H-DPEPAPPVPTTAASPPSTAAAPPAPATPVAPPPPAPAAAT-NH2 [glycosylated Apa peptide]
CD4+ T lymphocytes
  stimulation of CD4+ lymphocytes from the controls: does not stimulate
CD4+ T lymphocytes; 18 tuberculosis patients, six days stimulation
  proportion of tuberculosis patients positive in the assay: 13/18

## Lip: mannosylated glycopeptide purified from M. tuberculosis culture medium, derived from the protein encoded by the Rv1796 gene (SEQ ID NO:3) (Ac-TIPTTETPPPPQTVTLSPVPPQTVTVIPAPPPEEG; also: mannosylated; listed as Mycobacterium tuberculosis)
T lymphocytes; T lymphocytes treated with an antibody directed against CD4 molecules
  T-lymphocyte proliferation: marginal
T lymphocytes; glycopeptide treated with α-mannosidase
  T-lymphocyte proliferation: marginal
T lymphocytes; native glycopeptide
  T-lymphocyte proliferation: dependent on the peptide concentration
[1]
  delayed-type hypersensitivity reaction (in words): relatively inactive
[2]; 0.02 μg in 0.1 ml
  erythema reaction, peptide treated with subtilisin: negative
  erythema reaction, peptide treated with α-mannosidase: negative
[2]; after α-mannosidase for 24 h at 37° C.
  antigenic activity after deglycosylation: less than 30 000 TU/mg
[2]; [6]
  antigenic activity: 1 000 000 TU/mg
  delayed-type hypersensitivity reaction (in words): very active
[2]; subtilisin 24 h at 37° C.
  antigenic activity after the action of subtilisin: abolishes the antigenic activity
[2]; versus standard purified proteins from M. tuberculosis (PPD)
  activity relative to PPD at an equivalent amount of proteins: at least 10 times
[2]; α-mannosidase for 24 h at 37° C.
  loss of antigenic activity after α-mannosidase: more than 95%

B1: Native Apa: protein secreted by M. tuberculosis, product of the Rv 1860 gene, purified from the culture supernatant (protein, UniProt P9WIR7 40-325, looked up)
Alanine and proline-rich …: DPEPAPPVPTTAASPPSTAAAPPAPATPVAPPPPAAANTPNAQPGDPNAAPPPADPNAPPPPVIAPNAPQPVRIDNPVGGFSFALPAGWVESDAAHFDYGSALLSKTTGDPPFPGQPPPVANDTRIVLGRLDQKLYASAEATDSKAAARLGSDMGEFYMPYPGTRINQETVSLDANGVSGSASYYEVKFSDPSKPNGQIWTGVIGSPAANAPDAGPPQRWFVVWLGTANNPVDKGAAKALAESIRPLVAPPPAPAPAPAEPAPAPAPAGEVAPTPTTPTPQRTLPA
modifications: glycosylated native
notes: protein secreted by M. tuberculosis, product of the Rv 1860 gene, purified from the culture supernatant
[3]
  delayed-type hypersensitivity / CD4+ T lymphocyte response (in words): equivalent; also recorded: develop, in the vast majority of cases, an immune response
[4]; α-mannosidase, TFMS or expression in E. coli
  loss of antigenicity after demannosylation: 100 fold
[2]; Apa molecules on which there remain 3 to 6 mannose residues
  loss of antigenic activity: 86%
[2]; digestion 1 h
  loss of antigenic activity during digestion with α-mannosidase: 66%
[2]; digestion 4 h
  loss of antigenic activity during digestion with α-mannosidase: 86%
[2]; [6]
  delayed-type hypersensitivity reaction (in words): antigenic; also recorded: show a delayed-type hypersensitivity reaction; also recorded: considerable
CD4+ T lymphocytes
  difference of response between tuberculosis patients and vaccinated controls (in words): stimulates more frequently the response from the patients
[5]
  sensitization (in words): identical

B2: E. Coli recombinant Apa: deglycosylated recombinant Apa produced in E. coli (protein, UniProt P9WIR7 40-325, looked up)
Alanine and proline-rich …: DPEPAPPVPTTAASPPSTAAAPPAPATPVAPPPPAAANTPNAQPGDPNAAPPPADPNAPPPPVIAPNAPQPVRIDNPVGGFSFALPAGWVESDAAHFDYGSALLSKTTGDPPFPGQPPPVANDTRIVLGRLDQKLYASAEATDSKAAARLGSDMGEFYMPYPGTRINQETVSLDANGVSGSASYYEVKFSDPSKPNGQIWTGVIGSPAANAPDAGPPQRWFVVWLGTANNPVDKGAAKALAESIRPLVAPPPAPAPAPAEPAPAPAPAGEVAPTPTTPTPQRTLPA
modifications: recombinant, non-glycosylated, E. coli
[3]
  delayed-type hypersensitivity / CD4+ T lymphocyte response (in words): of the same strength as the responses observed with the glycosylated native antigen
[3]; listed as E. coli rApa
  delayed-type hypersensitivity / CD4+ T lymphocyte response (in words): equivalent
[2]; guinea pigs immunized with live BCG, listed as molecules produced in E. coli
  delayed-type hypersensitivity reaction (in words): very weak or absent
[2]; guinea pigs immunized with live BCG, listed as non-glycosylated recombinant Apa produced in E. coli
  delayed-type hypersensitivity reaction (in words): no reaction or develop a greatly decreased reaction

B3: glycosylated Apa produced by Mycobacterium smegmatis: Apa produced by M. smegmatis, overall mannose composition slightly different from that of M. tuberculosis Apa (protein, UniProt P9WIR7 40-325, looked up)
Alanine and proline-rich …: DPEPAPPVPTTAASPPSTAAAPPAPATPVAPPPPAAANTPNAQPGDPNAAPPPADPNAPPPPVIAPNAPQPVRIDNPVGGFSFALPAGWVESDAAHFDYGSALLSKTTGDPPFPGQPPPVANDTRIVLGRLDQKLYASAEATDSKAAARLGSDMGEFYMPYPGTRINQETVSLDANGVSGSASYYEVKFSDPSKPNGQIWTGVIGSPAANAPDAGPPQRWFVVWLGTANNPVDKGAAKALAESIRPLVAPPPAPAPAPAEPAPAPAPAGEVAPTPTTPTPQRTLPA
modifications: glycosylated, produced in M. smegmatis
[4]
  decrease of antigenic activity versus Apa produced by M. tuberculosis: approximately 10 fold

B4: Deglycosylated Apa: deglycosylated Apa protein prepared as described in example 1 (digestion with α-mannosidase) (protein, UniProt P9WIR7 40-325, looked up)
Alanine and proline-rich …: DPEPAPPVPTTAASPPSTAAAPPAPATPVAPPPPAAANTPNAQPGDPNAAPPPADPNAPPPPVIAPNAPQPVRIDNPVGGFSFALPAGWVESDAAHFDYGSALLSKTTGDPPFPGQPPPVANDTRIVLGRLDQKLYASAEATDSKAAARLGSDMGEFYMPYPGTRINQETVSLDANGVSGSASYYEVKFSDPSKPNGQIWTGVIGSPAANAPDAGPPQRWFVVWLGTANNPVDKGAAKALAESIRPLVAPPPAPAPAPAEPAPAPAPAGEVAPTPTTPTPQRTLPA
modifications: deglycosylated
[3]
  delayed-type hypersensitivity / CD4+ T lymphocyte response (in words): of the same strength as the responses observed with the glycosylated native antigen
[2]; [6]
  delayed-type hypersensitivity reaction (in words): very weak or absent
CD4+ T lymphocytes
  difference of response between tuberculosis patients and vaccinated controls (in words): this difference between the groups is lost
[5]
  sensitization (in words): identical
